Reference: patent publication US20260193309A1 (BRIGHAM AND WOMEN S HOSPITAL, published 2026)
Where a chain is given by its changes, count along the chain named. Names may count otherwise.

B1: human CEACAM1 IgV domain, wild type (tagless hCEACAM1 IgV domain) (receptor)
chain: QLTTESMPFNVAEGKEVLLLVHNLPQQLFGYSWYKGERVDGNRQIVGYAIGTQQATPGPANSGRETIYPNASLLIQNVTQNDTGFYTLQVIKSDLVNEEATGQFHVYP
notes: also called hCEACAM1 WT; WT
B2: hCEACAM1 IgV domain mutant I91A (receptor)
chain: B1 chain with I91A
notes: also called hCEACAM1 I91A
B3: hCEACAM1 IgV domain mutant V39A (receptor)
chain: B1 chain with V39A
notes: also called hCEACAM1 V39A
B4: hCEACAM1 IgV domain variant D40R (receptor)
chain: B1 chain with D40R
notes: also called hCEACAM1 D40R
B5: hCEACAM1 IgV domain variant R38D/G41S (receptor)
chain: B1 chain with R38D, G41S
notes: also called R38D G41S monomer
B6: hCEACAM1 IgV domain variant Q89H (receptor)
chain: B1 chain with Q89H
notes: also called tagless Q89H; hCEACAM1 Q89H
B7: hCEACAM1 IgV domain variant R38D (receptor)
chain: B1 chain with R38D
notes: also called tagless R38D; hCEACAM1 R38D

Experiments:
[1] = target: the molecule itself; assay: PDB-PISA analysis of the dimer crystal structure
[2] = target: the molecule itself; assay: DSF and SEC-MALS (FIGS. 14B and 14C)
[3] = target: B1; assay: structure of the heterodimer (FIG. 10C)
[4] = target: B1; assay: ELISA binding assay, tagless hCEACAM1 IgV protein added to WT hCEACAM1; signal given as fold response relative to WT
[5] = target: B1; assay: PDB-PISA analysis of the dimer crystal structure

Question: With B1 as the binder, how does the “PDB dimer formation score (PDB-PISA)” value [1] read?
Answer: 0.89

Question: Does B2 bind [2]?
Answer: binds

Question: Does B3 bind [2]?
Answer: binds

Question: Which “PDB dimer formation score (PDB-PISA)” value [1] does the source give for B4 here?
Answer: 0.93

Question: Does B5 bind [3]?
Answer: binds

Question: Which results are given for B6?
Answer: binding result [4]: binds; PDB dimer formation score (PDB-PISA) [1]: 0.96

Question: With B7 as the binder, how does the “PDB dimer formation score (PDB-PISA)” value [5] read?
Answer: 0.91
